Experimental data taken from article PMC5493759, “Neurovascular EGFL7 regulates adult neurogenesis in the subventricular zone and thereby affects olfactory perception” (Nature Communications, 2017).

Key:
Test in all cases: co-IP; Flag-tagged EGFL7 co-expressed with V5-tagged Notch ECDs or Notch1-ECD deletion mutants in HEK293; lysate immunoprecipitated with Immunosorb A overnight at 4 °C; quantitative western blot (Odyssey); n=3
[1] = target: T1, V5-tagged Notch2 extracellular domain (UniProt O35516 26-1679); conditions: partners not purified
T1 construct: Notch2, extracellular domain; source: HEK293, transiently transfected, in lysate

[2] = target: T2, V5-tagged Notch3 extracellular domain (UniProt Q61982 40-1643); conditions: partners not purified
T2 construct: Notch3, extracellular domain; source: HEK293, transiently transfected, in lysate

[3] = target: T3, V5-tagged Notch4 extracellular domain (UniProt P31695 21-1443); conditions: partners not purified
T3 construct: Notch4, extracellular domain; source: HEK293, transiently transfected, in lysate
T3 sequence (looked up): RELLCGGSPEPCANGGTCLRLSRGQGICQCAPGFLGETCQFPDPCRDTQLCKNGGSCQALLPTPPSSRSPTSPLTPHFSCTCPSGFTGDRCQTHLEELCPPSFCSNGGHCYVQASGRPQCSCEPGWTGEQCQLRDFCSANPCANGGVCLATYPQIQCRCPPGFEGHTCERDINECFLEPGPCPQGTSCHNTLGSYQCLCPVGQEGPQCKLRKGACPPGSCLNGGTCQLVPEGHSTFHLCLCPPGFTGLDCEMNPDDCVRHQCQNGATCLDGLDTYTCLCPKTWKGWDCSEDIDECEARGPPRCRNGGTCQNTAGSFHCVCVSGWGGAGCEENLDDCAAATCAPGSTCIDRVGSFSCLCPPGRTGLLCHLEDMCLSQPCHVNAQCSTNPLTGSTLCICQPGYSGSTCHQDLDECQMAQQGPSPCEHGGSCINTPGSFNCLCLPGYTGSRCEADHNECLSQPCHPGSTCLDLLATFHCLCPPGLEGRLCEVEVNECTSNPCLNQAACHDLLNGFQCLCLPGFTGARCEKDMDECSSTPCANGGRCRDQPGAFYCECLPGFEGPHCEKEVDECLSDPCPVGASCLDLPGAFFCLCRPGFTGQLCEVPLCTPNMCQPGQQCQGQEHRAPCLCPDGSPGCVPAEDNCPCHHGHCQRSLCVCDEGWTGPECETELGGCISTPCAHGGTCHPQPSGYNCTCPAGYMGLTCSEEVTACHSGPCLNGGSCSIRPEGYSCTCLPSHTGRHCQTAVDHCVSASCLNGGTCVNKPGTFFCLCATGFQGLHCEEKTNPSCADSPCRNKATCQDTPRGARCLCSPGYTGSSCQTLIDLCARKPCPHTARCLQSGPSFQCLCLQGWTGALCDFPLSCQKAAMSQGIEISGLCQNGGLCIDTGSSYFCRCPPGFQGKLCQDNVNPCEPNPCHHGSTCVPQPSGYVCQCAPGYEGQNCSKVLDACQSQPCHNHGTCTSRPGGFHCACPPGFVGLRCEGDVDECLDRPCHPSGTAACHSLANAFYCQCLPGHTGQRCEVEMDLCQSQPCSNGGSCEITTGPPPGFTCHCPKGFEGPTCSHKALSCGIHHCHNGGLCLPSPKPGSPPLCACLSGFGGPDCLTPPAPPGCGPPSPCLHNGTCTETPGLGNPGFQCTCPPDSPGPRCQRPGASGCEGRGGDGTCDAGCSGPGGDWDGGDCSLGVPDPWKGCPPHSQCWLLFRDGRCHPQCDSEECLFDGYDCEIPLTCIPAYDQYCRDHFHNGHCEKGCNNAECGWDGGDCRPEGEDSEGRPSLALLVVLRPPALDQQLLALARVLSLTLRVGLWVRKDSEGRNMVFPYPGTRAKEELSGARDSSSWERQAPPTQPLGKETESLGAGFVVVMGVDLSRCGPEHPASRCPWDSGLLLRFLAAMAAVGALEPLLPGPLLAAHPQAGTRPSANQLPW

[4] = target: V5-tagged Notch1-ECD deletion mutant Notch1-Δ5–10 (UniProt Q01705)
[5] = target: V5-tagged Notch1-ECD deletion mutant Notch1-Δ8 (UniProt Q01705)
[6] = target: V5-tagged Notch1-ECD deletion mutant Notch1-Δ11+12 (UniProt Q01705)
Chain of V5-tagged Notch1-ECD deletion mutant Notch1-Δ11+12 (Q01705 19-1725, stated change not applied): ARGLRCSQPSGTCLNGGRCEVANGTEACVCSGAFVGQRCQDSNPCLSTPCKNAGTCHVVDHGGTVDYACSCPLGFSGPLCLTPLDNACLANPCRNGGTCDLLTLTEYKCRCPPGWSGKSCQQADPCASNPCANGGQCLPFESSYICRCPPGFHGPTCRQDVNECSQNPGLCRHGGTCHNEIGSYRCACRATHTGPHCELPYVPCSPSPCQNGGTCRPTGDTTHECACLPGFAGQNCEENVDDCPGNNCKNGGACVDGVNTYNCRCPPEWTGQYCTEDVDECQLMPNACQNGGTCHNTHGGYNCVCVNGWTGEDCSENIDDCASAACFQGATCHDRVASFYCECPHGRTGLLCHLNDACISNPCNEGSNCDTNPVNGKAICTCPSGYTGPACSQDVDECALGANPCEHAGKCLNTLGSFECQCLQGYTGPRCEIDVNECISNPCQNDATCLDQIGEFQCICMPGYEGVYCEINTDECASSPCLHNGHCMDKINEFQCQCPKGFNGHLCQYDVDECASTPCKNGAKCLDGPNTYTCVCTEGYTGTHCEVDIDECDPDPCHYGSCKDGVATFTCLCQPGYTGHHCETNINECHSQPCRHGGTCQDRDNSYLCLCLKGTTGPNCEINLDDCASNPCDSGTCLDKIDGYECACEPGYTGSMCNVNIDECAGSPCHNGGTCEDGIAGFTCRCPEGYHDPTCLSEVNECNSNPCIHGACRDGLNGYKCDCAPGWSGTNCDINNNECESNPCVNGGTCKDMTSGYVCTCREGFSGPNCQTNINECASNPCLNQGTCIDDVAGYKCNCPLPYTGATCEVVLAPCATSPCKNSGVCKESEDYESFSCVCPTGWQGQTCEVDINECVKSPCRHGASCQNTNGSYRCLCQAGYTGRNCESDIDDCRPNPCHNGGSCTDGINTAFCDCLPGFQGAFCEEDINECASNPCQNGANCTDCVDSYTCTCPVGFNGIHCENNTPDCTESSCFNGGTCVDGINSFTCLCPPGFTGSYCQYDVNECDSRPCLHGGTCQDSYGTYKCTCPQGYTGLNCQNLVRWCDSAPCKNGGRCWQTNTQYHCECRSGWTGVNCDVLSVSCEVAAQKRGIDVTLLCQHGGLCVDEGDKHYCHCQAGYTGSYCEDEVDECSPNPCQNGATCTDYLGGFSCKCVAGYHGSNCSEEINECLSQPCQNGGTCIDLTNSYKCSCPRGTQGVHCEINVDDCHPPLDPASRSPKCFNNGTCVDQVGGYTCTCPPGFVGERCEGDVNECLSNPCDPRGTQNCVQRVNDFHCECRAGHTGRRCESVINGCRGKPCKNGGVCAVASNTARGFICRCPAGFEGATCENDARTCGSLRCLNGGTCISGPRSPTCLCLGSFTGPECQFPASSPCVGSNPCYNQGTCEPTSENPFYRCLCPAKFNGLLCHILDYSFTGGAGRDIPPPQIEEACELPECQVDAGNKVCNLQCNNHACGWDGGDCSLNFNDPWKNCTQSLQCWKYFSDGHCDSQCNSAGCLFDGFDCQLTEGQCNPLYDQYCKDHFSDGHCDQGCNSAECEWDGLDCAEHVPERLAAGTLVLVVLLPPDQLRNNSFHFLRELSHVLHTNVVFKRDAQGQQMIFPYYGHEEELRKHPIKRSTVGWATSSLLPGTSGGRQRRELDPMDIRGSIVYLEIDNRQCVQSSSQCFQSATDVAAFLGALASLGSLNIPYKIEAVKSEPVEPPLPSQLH

T2 sequence (Q61982 40-1643): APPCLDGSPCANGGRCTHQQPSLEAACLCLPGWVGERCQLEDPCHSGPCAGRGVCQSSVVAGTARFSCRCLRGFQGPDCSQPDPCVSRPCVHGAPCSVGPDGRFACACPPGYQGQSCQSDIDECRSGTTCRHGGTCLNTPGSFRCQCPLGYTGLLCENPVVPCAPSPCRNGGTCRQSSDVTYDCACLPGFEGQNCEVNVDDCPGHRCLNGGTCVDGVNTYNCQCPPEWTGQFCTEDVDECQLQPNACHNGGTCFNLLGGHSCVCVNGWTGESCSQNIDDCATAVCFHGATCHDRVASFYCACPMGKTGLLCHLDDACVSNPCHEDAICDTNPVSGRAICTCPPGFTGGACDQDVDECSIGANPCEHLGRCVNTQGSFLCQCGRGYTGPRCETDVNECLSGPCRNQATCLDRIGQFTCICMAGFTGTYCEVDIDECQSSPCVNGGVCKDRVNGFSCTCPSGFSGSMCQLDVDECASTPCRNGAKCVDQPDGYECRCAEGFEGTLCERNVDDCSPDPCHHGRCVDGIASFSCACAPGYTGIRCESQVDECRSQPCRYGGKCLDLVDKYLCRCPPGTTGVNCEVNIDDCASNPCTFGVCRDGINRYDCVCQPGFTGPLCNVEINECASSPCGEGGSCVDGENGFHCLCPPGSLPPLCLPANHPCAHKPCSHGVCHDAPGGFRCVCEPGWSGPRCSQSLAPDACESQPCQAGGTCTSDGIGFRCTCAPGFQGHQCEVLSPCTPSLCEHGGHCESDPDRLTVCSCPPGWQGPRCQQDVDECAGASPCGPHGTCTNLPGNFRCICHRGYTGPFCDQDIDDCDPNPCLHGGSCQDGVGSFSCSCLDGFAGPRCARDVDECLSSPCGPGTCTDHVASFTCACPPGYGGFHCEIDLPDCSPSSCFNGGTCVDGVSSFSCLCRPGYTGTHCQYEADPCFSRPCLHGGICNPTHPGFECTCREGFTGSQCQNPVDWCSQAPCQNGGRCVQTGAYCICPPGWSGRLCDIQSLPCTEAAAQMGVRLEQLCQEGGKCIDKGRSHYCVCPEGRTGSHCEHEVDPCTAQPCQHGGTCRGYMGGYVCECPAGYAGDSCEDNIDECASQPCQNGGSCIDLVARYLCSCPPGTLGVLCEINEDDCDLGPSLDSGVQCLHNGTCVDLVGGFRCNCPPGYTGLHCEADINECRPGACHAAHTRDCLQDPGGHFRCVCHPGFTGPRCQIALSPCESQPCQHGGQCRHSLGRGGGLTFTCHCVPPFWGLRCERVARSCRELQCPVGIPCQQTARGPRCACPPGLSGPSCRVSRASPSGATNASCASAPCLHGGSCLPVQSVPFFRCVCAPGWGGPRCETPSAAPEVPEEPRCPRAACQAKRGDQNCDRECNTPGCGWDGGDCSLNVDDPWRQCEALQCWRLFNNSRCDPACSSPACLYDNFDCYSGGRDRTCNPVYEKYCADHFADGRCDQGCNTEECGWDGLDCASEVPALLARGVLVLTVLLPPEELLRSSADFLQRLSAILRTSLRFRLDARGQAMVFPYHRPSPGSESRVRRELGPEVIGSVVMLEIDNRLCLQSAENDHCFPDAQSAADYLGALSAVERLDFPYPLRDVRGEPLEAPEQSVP
T1 sequence (O35516 26-1679): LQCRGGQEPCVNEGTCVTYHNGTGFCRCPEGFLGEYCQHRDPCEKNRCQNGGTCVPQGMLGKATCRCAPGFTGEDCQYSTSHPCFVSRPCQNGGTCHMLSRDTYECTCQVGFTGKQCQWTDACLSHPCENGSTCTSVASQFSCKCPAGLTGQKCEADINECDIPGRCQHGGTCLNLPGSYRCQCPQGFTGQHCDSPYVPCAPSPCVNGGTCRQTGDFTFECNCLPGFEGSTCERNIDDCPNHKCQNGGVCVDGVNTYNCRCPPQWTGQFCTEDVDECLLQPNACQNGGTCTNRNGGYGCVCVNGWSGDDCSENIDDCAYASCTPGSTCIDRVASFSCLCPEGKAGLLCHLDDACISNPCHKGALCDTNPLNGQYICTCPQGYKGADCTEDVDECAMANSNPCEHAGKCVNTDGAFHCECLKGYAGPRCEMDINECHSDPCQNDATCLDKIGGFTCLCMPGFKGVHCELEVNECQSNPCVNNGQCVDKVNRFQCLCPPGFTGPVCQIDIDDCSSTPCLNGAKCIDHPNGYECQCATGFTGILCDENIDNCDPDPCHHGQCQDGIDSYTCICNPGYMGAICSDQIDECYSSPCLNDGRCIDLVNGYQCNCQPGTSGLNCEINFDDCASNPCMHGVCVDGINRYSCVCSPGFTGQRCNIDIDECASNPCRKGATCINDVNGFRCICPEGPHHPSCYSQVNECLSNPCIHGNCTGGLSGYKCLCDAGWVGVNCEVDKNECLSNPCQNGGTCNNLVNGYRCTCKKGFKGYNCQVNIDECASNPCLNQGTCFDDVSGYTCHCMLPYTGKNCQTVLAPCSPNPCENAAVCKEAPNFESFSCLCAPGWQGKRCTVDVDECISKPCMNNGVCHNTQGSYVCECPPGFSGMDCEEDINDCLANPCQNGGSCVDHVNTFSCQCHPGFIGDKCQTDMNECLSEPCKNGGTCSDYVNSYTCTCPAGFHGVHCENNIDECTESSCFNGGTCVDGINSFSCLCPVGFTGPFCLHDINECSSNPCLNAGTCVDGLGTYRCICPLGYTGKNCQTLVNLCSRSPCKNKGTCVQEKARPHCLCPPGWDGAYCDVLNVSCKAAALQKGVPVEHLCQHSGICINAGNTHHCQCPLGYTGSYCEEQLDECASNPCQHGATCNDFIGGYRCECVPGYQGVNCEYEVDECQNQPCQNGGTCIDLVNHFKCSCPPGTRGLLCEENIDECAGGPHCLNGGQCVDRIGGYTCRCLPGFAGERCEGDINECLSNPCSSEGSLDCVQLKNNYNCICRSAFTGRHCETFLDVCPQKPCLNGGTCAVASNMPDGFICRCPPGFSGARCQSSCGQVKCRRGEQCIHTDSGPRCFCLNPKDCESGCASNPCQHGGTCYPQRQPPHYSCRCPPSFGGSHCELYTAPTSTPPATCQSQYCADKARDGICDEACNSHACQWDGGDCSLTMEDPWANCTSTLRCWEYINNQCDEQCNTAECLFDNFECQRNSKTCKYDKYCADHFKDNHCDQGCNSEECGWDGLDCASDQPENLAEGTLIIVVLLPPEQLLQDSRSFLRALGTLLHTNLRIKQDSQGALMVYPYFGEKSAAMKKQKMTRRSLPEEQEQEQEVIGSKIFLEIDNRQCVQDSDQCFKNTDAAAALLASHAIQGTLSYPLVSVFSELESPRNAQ
Chain of V5-tagged Notch1-ECD deletion mutant Notch1-Δ8 (Q01705 19-1725, stated change not applied): as the sequence (Q01705 19-1725, stated change not applied) above
Chain of V5-tagged Notch1-ECD deletion mutant Notch1-Δ5–10 (Q01705 19-1725, stated change not applied): as above

binding relative to Notch1-ECD [1]: ~76% | binding relative to Notch1-ECD [2]: ~41% | binding relative to Notch1-ECD [3]: ~35% | change in binding relative to Notch1-ECD [4]: -18% | change in binding relative to Notch1-ECD [5]: -28% | change in binding relative to Notch1-ECD [6]: -26%
B1: Flag-tagged EGFL7 (epidermal growth factor-like protein 7) (natural protein, UniProt Q9QXT5 22-275, looked up)
chain: EHVYRPSRRVCTVGISGGSISETFVQRVYQPYLTTCDGHRACSTYRTIYRTAYRRSPGVTPARPRYACCPGWKRTSGLPGACGAAICQPPCGNGGSCIRPGHCRCPVGWQGDTCQTDVDECSTGEASCPQRCVNTVGSYWCQGWEGQSPSADGTRCLSKEGPSPVAPNPTAGVDSMAREEVYRLQARVDVLEQKLQLVLAPLHSLASRSTEHGLQDPGSLLAHSFQQLDRIDSLSEQVSFLEEHLGSCSCKKDL
notes: epidermal growth factor-like protein 7 (EGFL7); the same molecule is used here; source: HEK293, transiently transfected, in lysate
